Data: US20100233678

Experiments:
[1] = tested on: IgG, polyclonal (Mus musculus); assay: FP; settings: 10 nM DNA, 1 uM IgG, PBS pH 7.0, 45 min
[2] = tested on: IgG2, monoclonal (Homo sapiens); assay: filter; settings: 37.5 mM NaCl, 3.75 mM sodium citrate, pH 6.0
[3] = tested on: IgG1, monoclonal (Homo sapiens); assay: filter; settings: 37.5 mM NaCl, 3.75 mM sodium citrate, pH 6.0
[4] = tested on: IgG, polyclonal (ChromPure) (Homo sapiens); assay: filter; settings: ultrafiltration, 41 mM Na+, pH 6
[5] = tested on: IgG, polyclonal (Mus musculus); assay: filter; settings: 37.5 mM NaCl, 3.75 mM sodium citrate, pH 6.0
[6] = tested on: IgG4, monoclonal (Homo sapiens); assay: filter; settings: 37.5 mM NaCl, 3.75 mM Na citrate, pH 6.0
[7] = tested on: IgG Fab2 fragment (Homo sapiens); assay: filter; settings: 37.5 mM NaCl, 3.75 mM sodium citrate, pH 6.0
[8] = tested on: IgG Fab2 fragment (Mus musculus); assay: filter; settings: 37.5 mM NaCl, 3.75 mM sodium citrate, pH 6.0
[9] = tested on: IgG Fc fragment (Homo sapiens); assay: filter; settings: 37.5 mM NaCl, 3.75 mM sodium citrate, pH 6.0
[10] = tested on: IgA, monoclonal (Homo sapiens); assay: filter; settings: 37.5 mM NaCl, 3.75 mM sodium citrate, pH 6.0
[11] = tested on: IgM, monoclonal (Homo sapiens); assay: filter; settings: 37.5 mM NaCl, 3.75 mM sodium citrate, pH 6.0
[12] = tested on: IgG3, monoclonal (Homo sapiens); assay: filter; settings: 37.5 mM NaCl, 3.75 mM Na citrate, pH 6.0
[13] = hexaethylene glycol (iSp18) linkers as both loops

## AGGCCGCGCCCCCCGCGCCCACCGCCCCGGTGCC [RAD29]
[1]
  binding signal (% polarization change): 19

## CCCTCCCTGGGCTTTTTTTGATTTTTCTTAA [RAD4]
[2]
  Ka (log10 Ka (M-1)): 7.67
[3]
  Ka (log10 Ka (M-1)): 7.52
[4]; pH 5 8.48, pH 7 7.10, pH 8 7.02
  Ka (log10 Ka (M-1)): 8.13
[5]
  Ka (log10 Ka (M-1)): 7.71
[6]; control oligo
  Ka: 7.13 log10 M-1
[7]
  Ka (log10 Ka (M-1)): 6.89
[8]
  Ka (log10 Ka (M-1)): 7.09
[9]
  Ka (log10 Ka (M-1)): 5.26
[10]
  Ka (log10 Ka (M-1)): 7.66
[11]
  Ka (log10 Ka (M-1)): 6.89
[12]; control oligo
  Ka: 6.66 log10 M-1

## CCTCTTCCTTCTCCGGAGAAG [RAD1]
[6]; two hexaethylene glycol (iSp18) linkers as loops [iSp18 (hexaethylene glycol) linkers left out between 7-8 and 14-15]
  Ka: 6.37 log10 M-1
[12]; two hexaethylene glycol (iSp18) linkers as loops [iSp18 (hexaethylene glycol) linkers left out between 7-8 and 14-15], ultrafiltration, Picogreen
  Ka: 6.17 log10 M-1

## CCTCTTCHEGCTTCTCCHEGGGAGAAG [RAD1]
[2]; [13]
  Ka (log10 Ka (M-1)): 6.51
[3]; [13]
  Ka (log10 Ka (M-1)): 6.38
[4]; hexaethylene glycol (iSp18) linkers as both loops, pH 5 7.45, pH 7 6.49, pH 8 6.30
  Ka (log10 Ka (M-1)): 6.51
[5]; [13]
  Ka (log10 Ka (M-1)): 6.6
[7]; [13]
  Ka (log10 Ka (M-1)): 5.82
[8]; [13]
  Ka (log10 Ka (M-1)): 6.38
[9]; [13]
  Ka (log10 Ka (M-1)): 5.8
[10]; [13]
  Ka (log10 Ka (M-1)): 6.37
[11]; [13]
  Ka (log10 Ka (M-1)): 6.32

## CCTCTTCTTTTTCTTCTC [RAD20]
[2]
  Ka (log10 Ka (M-1)): 7.85
[3]
  Ka (log10 Ka (M-1)): 7.34
[4]; pH 5 8.11, pH 7 7.40, pH 8 6.64
  Ka (log10 Ka (M-1)): 7.98
[5]
  Ka (log10 Ka (M-1)): 8.3
[6]
  Ka: 7.67 log10 M-1
[7]
  Ka (log10 Ka (M-1)): 6.9
[8]
  Ka (log10 Ka (M-1)): 7.41
[9]
  Ka (log10 Ka (M-1)): 5.96
[10]
  Ka (log10 Ka (M-1)): 7.53
[11]
  Ka (log10 Ka (M-1)): 7.02
[12]
  Ka: 6.84 log10 M-1

## CCTCTTCTTTTTCTTCTCCTTTTTGGAGAAG [RAD2]
[2]
  Ka (log10 Ka (M-1)): 7.06
[3]
  Ka (log10 Ka (M-1)): 7.04
[4]; pH 5 8.74, pH 7 6.96, pH 8 6.57
  Ka (log10 Ka (M-1)): 7.61
[5]
  Ka (log10 Ka (M-1)): 7.49
[6]
  Ka: 7.08 log10 M-1
[7]
  Ka (log10 Ka (M-1)): 6.45
[8]
  Ka (log10 Ka (M-1)): 6.71
[9]
  Ka (log10 Ka (M-1)): 5.86
[10]
  Ka (log10 Ka (M-1)): 6.9
[11]
  Ka (log10 Ka (M-1)): 6.73
[12]
  Ka: 6.64 log10 M-1

## CCTTCCTTTGGAAGGTTG [RAD23]
[2]
  Ka (log10 Ka (M-1)): 6.86
[3]
  Ka (log10 Ka (M-1)): 6.14
[4]; pH 5 7.37, pH 7 6.31, pH 8 6.21
  Ka (log10 Ka (M-1)): 6.88
[5]
  Ka (log10 Ka (M-1)): 6.77
[6]
  Ka: 5.97 log10 M-1
[7]
  Ka (log10 Ka (M-1)): 5.64
[8]
  Ka (log10 Ka (M-1)): 6.33
[10]
  Ka (log10 Ka (M-1)): 6.38
[11]
  Ka (log10 Ka (M-1)): 6.08
[12]
  Ka: 5.62 log10 M-1

## CGCGAAAACGCG [RAD22]
[4]; pH 5 5.95, pH 7 6.04, pH 8 5.97
  Ka (log10 Ka (M-1)): 6.25

## CTCTCTCTTTTTCTCTCTCTTTTTGAGAGAG [RAD9]
[2]
  Ka (log10 Ka (M-1)): 7.05
[3]
  Ka (log10 Ka (M-1)): 7.05
[4]; pH 5 8.67, pH 7 7.04, pH 8 6.94
  Ka (log10 Ka (M-1)): 7.74
[5]
  Ka (log10 Ka (M-1)): 7.46
[6]
  Ka: 7.06 log10 M-1
[7]
  Ka (log10 Ka (M-1)): 6.44
[8]
  Ka (log10 Ka (M-1)): 6.75
[9]
  Ka (log10 Ka (M-1)): 5.87
[10]
  Ka (log10 Ka (M-1)): 6.95
[11]
  Ka (log10 Ka (M-1)): 6.79
[12]
  Ka: 6.62 log10 M-1

## GAGAGAGTTTTTGAGAGAGTTTTTCTCTCTC [RAD7]
[2]
  Ka (log10 Ka (M-1)): 7.25
[3]
  Ka (log10 Ka (M-1)): 7.3
[4]; pH 5 8.51, pH 7 6.97, pH 8 6.79
  Ka (log10 Ka (M-1)): 8.04
[5]
  Ka (log10 Ka (M-1)): 7.69
[6]
  Ka: 7.16 log10 M-1
[7]
  Ka (log10 Ka (M-1)): 6.68
[8]
  Ka (log10 Ka (M-1)): 6.97
[9]
  Ka (log10 Ka (M-1)): 5.99
[10]
  Ka (log10 Ka (M-1)): 7.33
[11]
  Ka (log10 Ka (M-1)): 6.89
[12]
  Ka: 6.74 log10 M-1

## GAGTGAGTCTCAGTTAGTTTCGATTGATTCT [RAD5]
[4]; pH 5 8.75, pH 7 7.11, pH 8 6.81
  Ka (log10 Ka (M-1)): 8.03

## GGAAAGGTTTTTGGAAAGGTTTTTCCTTTCC [RAD6]
[4]; pH 5 8.50, pH 7 6.86, pH 8 6.74
  Ka (log10 Ka (M-1)): 7.96

## GGAGGTGCTCCGAAAGGAACTCC [RAD30]
[1]
  binding signal (% polarization change): 15

## GGTTGGTTTGGTTGG [RAD13 (TTT-aptamer)]
[4]; pH 5 7.55, pH 7 6.46, pH 8 6.53
  Ka (log10 Ka (M-1)): 6.96

## TCCCTTTCCCTTTCCCTTTCCC [RAD28]
[1]
  binding signal (% polarization change): 22

## TCCTCTTCTTTTTCTTCTC [RAD24]
[1]
  binding signal (% polarization change): 21

## TCCTTTCCTTTCCTTTCCT [RAD27]
[1]
  binding signal (% polarization change): 22

## TCTCTCTCTCTCTCTCTCT [RAD26]
[1]
  binding signal (% polarization change): 38

## TGGAGTCTGCGCGAGTCAGCGCTCAAGATC [RAD8]
[4]; pH 5 8.41, pH 7 6.86, pH 8 6.84
  Ka (log10 Ka (M-1)): 7.85

## TGGGCCGGTAACGGATTACCGTAAGGTCCC [RAD11]
[4]; pH 5 8.31, pH 7 6.85, pH 8 6.85
  Ka (log10 Ka (M-1)): 7.64

## TGGGCCGGTAACGGGTTACCGTAAGGTCCC [RAD10]
[2]
  Ka (log10 Ka (M-1)): 7.01
[3]
  Ka (log10 Ka (M-1)): 7.04
[4]; pH 5 8.41, pH 7 6.81, pH 8 6.72
  Ka (log10 Ka (M-1)): 7.65
[5]
  Ka (log10 Ka (M-1)): 7.53
[6]
  Ka: 7 log10 M-1
[7]
  Ka (log10 Ka (M-1)): 6.43
[8]
  Ka (log10 Ka (M-1)): 6.76
[9]
  Ka (log10 Ka (M-1)): 5.92
[10]
  Ka (log10 Ka (M-1)): 6.92
[11]
  Ka (log10 Ka (M-1)): 6.7
[12]
  Ka: 6.62 log10 M-1

## TGGTTGGTTTTTGGAAGGATTTTTTCCTTCC [RAD3]
[2]
  Ka (log10 Ka (M-1)): 7.36
[3]
  Ka (log10 Ka (M-1)): 7.45
[4]; pH 5 8.60, pH 7 6.86, pH 8 6.76
  Ka (log10 Ka (M-1)): 7.79
[5]
  Ka (log10 Ka (M-1)): 7.69
[6]
  Ka: 7.2 log10 M-1
[7]
  Ka (log10 Ka (M-1)): 6.97
[8]
  Ka (log10 Ka (M-1)): 7.09
[9]
  Ka (log10 Ka (M-1)): 6.34
[10]
  Ka (log10 Ka (M-1)): 7.38
[11]
  Ka (log10 Ka (M-1)): 6.71
[12]
  Ka: 6.69 log10 M-1

## TTCCTTCCTTCCTTCCTTC [RAD25]
[1]
  binding signal (% polarization change): 22

## TTTGGTTGGTTTGGTTGG [RAD19]
[4]; inosine at I positions [inosine at 4,14], pH 5 7.82, pH 7 6.50, pH 8 6.04
  Ka (log10 Ka (M-1)): 7.14

## TTTTCGCGCGTACGCGCGCGAA [RAD15]
[2]
  Ka (log10 Ka (M-1)): 6.18
[3]
  Ka (log10 Ka (M-1)): 6.39
[4]; pH 5 7.65, pH 7 6.33, pH 8 6.19
  Ka (log10 Ka (M-1)): 7
[5]
  Ka (log10 Ka (M-1)): 6.35
[6]
  Ka: 6.13 log10 M-1
[7]
  Ka (log10 Ka (M-1)): 5.33
[8]
  Ka (log10 Ka (M-1)): 6.21
[10]
  Ka (log10 Ka (M-1)): 6.23
[11]
  Ka (log10 Ka (M-1)): 6.19
[12]
  Ka: 6.22 log10 M-1

## TTTTCGCGCGTTAACGCGCGAA [RAD16]
[2]
  Ka (log10 Ka (M-1)): 6.11
[3]
  Ka (log10 Ka (M-1)): 6.87
[4]; pH 5 8.22, pH 7 7.25, pH 8 6.79
  Ka (log10 Ka (M-1)): 7.8
[5]
  Ka (log10 Ka (M-1)): 7.07
[6]
  Ka: 6.54 log10 M-1
[7]
  Ka (log10 Ka (M-1)): 6.23
[8]
  Ka (log10 Ka (M-1)): 6.11
[10]
  Ka (log10 Ka (M-1)): 6.46
[11]
  Ka (log10 Ka (M-1)): 6.26
[12]
  Ka: 6.31 log10 M-1

## TTTTCGCGTGTGTGCGCGAA [RAD12]
[4]; pH 5 7.61, pH 7 6.37, pH 8 5.74
  Ka (log10 Ka (M-1)): 6.98
